Reference: article PMC8828381

Target: biotinylated SARS-CoV-2-S1 (SINO BIOLOGICAL #40591-V08H-B) (SARS-CoV-2)
Test: SPR

integrin α5β1 extracellular domain with flag tag on α5 and His tag on β1 (from UniProt P08648;P05556) (complex)
Kd: 31 nM
